Source: IntAct's records for PubMed 19338389

B1: Transcription factor p65 (Mus musculus), Q04207 (parent)
chain: MDDLFPLIFPSEPAQASGPYVEIIEQPKQRGMRFRYKCEGRSAGSIPGERSTDTTKTHPTIKINGYTGPGTVRISLVTKDPPHRPHPHELVGKDCRDGYYEADLCPDRSIHSFQNLGIQCVKKRDLEQAISQRIQTNNNPFHVPIEEQRGDYDLNAVRLCFQVTVRDPAGRPLLLTPVLSHPIFDNRAPNTAELKICRVNRNSGSCLGGDEIFLLCDKVQKEDIEVYFTGPGWEARGSFSQADVHRQVAIVFRTPPYADPSLQAPVRVSMQLRRPSDRELSEPMEFQYLPDTDDRHRIEEKRKRTYETFKSIMKKSPFNGPTEPRPPTRRIAVPTRNSTSVPKPAPQPYTFPASLSTINFDEFSPMLLPSGQISNQALALAPSSAPVLAQTMVPSSAMVPLAQPPAPAPVLTPGPPQSLSAPVPKSTQAGEGTLSEALLHLQFDADEDLGALLGNSTDPGVFTDLASVDNSEFQQLLNQGVSMSHSTAEPMLMEYPEAITRLVTGSQRPPDPAPTPLGTSGLPNGLSGDEDFSSIADMDFSALLSQISS
partner: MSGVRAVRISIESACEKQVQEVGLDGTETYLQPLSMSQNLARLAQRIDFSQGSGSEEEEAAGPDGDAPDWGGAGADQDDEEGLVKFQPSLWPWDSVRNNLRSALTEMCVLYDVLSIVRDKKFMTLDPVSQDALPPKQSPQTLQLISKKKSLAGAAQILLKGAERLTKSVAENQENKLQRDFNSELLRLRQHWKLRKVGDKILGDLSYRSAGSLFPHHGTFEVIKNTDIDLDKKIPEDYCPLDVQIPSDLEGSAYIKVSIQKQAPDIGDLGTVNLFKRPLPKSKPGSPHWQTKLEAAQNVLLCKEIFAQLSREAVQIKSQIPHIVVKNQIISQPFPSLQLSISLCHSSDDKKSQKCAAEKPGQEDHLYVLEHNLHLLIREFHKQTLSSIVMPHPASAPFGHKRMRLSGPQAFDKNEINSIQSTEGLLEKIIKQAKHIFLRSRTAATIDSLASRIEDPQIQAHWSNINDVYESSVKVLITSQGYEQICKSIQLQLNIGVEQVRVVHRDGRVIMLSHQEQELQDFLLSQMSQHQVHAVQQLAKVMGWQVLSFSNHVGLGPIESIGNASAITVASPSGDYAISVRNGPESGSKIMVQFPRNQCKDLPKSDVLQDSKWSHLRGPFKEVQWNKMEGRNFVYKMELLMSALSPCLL

Variants of: B1
Settings: with med17_mouse Med17, Q8VCD5

Variant | effect of a mutation on the interaction
I535A;D537A;M538S;D539A;F540A;S541A | disrupting interaction
G528A;D529A;E530A;D531S;F532A;S533A;S534A | disrupting interaction
D539A;F540A | disrupting interaction
